Bridges are numbered along the chain shown (N, C = ends). Where no end group is shown, it is not given here.
Key:
Assay in all cases: cell-based or functional assay
glucagon receptor = glucagon receptor (UniProt P47871 26-477, limits assumed)
GLP-1 receptor = GLP-1 receptor (UniProt P43220 24-463, limits assumed)
GIP receptor = target: T1, GIP receptor (UniProt P48546 22-466)
T1 sequence (looked up): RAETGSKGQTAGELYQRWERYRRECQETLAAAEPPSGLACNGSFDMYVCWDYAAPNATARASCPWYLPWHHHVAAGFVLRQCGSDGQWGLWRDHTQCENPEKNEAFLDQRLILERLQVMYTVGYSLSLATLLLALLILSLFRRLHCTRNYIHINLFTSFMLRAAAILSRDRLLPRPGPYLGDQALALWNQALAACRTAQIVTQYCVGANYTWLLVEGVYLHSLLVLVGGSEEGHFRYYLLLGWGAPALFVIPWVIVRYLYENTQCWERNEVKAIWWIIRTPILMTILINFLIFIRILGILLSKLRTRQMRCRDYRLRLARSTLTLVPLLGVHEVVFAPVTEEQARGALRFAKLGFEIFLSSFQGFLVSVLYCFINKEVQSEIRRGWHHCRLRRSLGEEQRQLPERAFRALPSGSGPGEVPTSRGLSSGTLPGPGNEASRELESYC

Chain of glucagon receptor (P47871 26-477 limits assumed): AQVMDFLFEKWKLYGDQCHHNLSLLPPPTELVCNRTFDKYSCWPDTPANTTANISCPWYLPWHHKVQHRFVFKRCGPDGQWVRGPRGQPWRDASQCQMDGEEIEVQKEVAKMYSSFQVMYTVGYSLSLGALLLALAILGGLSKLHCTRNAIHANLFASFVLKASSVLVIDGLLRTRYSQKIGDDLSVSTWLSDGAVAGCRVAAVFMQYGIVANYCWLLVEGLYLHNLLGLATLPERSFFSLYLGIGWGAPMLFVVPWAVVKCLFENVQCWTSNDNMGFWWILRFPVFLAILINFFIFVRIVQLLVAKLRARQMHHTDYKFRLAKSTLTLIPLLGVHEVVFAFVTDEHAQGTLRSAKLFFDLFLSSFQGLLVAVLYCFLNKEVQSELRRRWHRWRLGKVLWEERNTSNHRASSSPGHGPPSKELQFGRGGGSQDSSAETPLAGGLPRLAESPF

YXEGTFISDYSIAMDKIHQQDFVNWLLAQKGKKNWLKHNITQ (C-terminal amide) [mt-100]
EC50 (glucagon receptor): 1460 nM | relative activity (glucagon receptor): 0.01% | EC50 (GLP-1 receptor): 552 nM | relative activity (GLP-1 receptor): 0.01% | EC50 (GIP receptor): 0.016 nM | relative activity (GIP receptor): 306%

B1: mt-107 (peptide)
peptide: HSQGTFISDYSKYLDEIHQKEFIAWLMNT-NH2
modifications: lactam 16-20; N-terminus assumed
SMILES: CC[C@H](C)[C@H](NC(=O)[C@H](Cc1ccccc1)NC(=O)[C@H](CCC(=O)O)NC(=O)[C@@H]1CCCCNC(=O)CC[C@H](NC(=O)[C@H](CC(=O)O)NC(=O)[C@H](CC(C)C)NC(=O)[C@H](Cc2ccc(O)cc2)NC(=O)[C@H](CCCCN)NC(=O)[C@H](CO)NC(=O)[C@H](Cc2ccc(O)cc2)NC(=O)[C@H](CC(=O)O)NC(=O)[C@H](CO)NC(=O)[C@@H](NC(=O)[C@H](Cc2ccccc2)NC(=O)[C@@H](NC(=O)CNC(=O)[C@H](CCC(N)=O)NC(=O)[C@H](CO)NC(=O)[C@@H](N)Cc2c[nH]cn2)[C@@H](C)O)[C@@H](C)CC)C(=O)N[C@@H]([C@@H](C)CC)C(=O)N[C@@H](Cc2c[nH]cn2)C(=O)N[C@@H](CCC(N)=O)C(=O)N1)C(=O)N[C@@H](C)C(=O)N[C@@H](Cc1c[nH]c2ccccc12)C(=O)N[C@@H](CC(C)C)C(=O)N[C@@H](CCSC)C(=O)N[C@@H](CC(N)=O)C(=O)N[C@H](C(N)=O)[C@@H](C)O
EC50 (glucagon receptor): 0.07 nM | relative activity (glucagon receptor): 186% | EC50 (GLP-1 receptor): 24.8 nM | relative activity (GLP-1 receptor): 0.16% | EC50 (GIP receptor): 3.37 nM | relative activity (GIP receptor): 0.74%

B2: mt-110 (peptide)
peptide: YSQGTFTSDYSIYLDEIHQKDFVNWLLAQ-NH2
modifications: lactam 16-20; N-terminus assumed
SMILES: CC[C@H](C)[C@H](NC(=O)[C@H](CO)NC(=O)[C@H](Cc1ccc(O)cc1)NC(=O)[C@H](CC(=O)O)NC(=O)[C@H](CO)NC(=O)[C@@H](NC(=O)[C@H](Cc1ccccc1)NC(=O)[C@@H](NC(=O)CNC(=O)[C@H](CCC(N)=O)NC(=O)[C@H](CO)NC(=O)[C@@H](N)Cc1ccc(O)cc1)[C@@H](C)O)[C@@H](C)O)C(=O)N[C@@H](Cc1ccc(O)cc1)C(=O)N[C@@H](CC(C)C)C(=O)N[C@@H](CC(=O)O)C(=O)N[C@H]1CCC(=O)NCCCC[C@@H](C(=O)N[C@@H](CC(=O)O)C(=O)N[C@@H](Cc2ccccc2)C(=O)N[C@H](C(=O)N[C@@H](CC(N)=O)C(=O)N[C@@H](Cc2c[nH]c3ccccc23)C(=O)N[C@@H](CC(C)C)C(=O)N[C@@H](CC(C)C)C(=O)N[C@@H](C)C(=O)N[C@@H](CCC(N)=O)C(N)=O)C(C)C)NC(=O)[C@H](CCC(N)=O)NC(=O)[C@H](Cc2c[nH]cn2)NC(=O)[C@H]([C@@H](C)CC)NC1=O
EC50 (glucagon receptor): 0.43 nM | relative activity (glucagon receptor): 23.3% | EC50 (GLP-1 receptor): 2.02 nM | relative activity (GLP-1 receptor): 1.49% | EC50 (GIP receptor): 0.478 nM | relative activity (GIP receptor): 9.62%

YAEGTFISDYSIAMDKIHQQDFVNWLLAQKGKKNWLKHNITQ-NH2 [mt-99]
EC50 (glucagon receptor): 23300 nM | relative activity (glucagon receptor): 0% | EC50 (GLP-1 receptor): 4550 nM | relative activity (GLP-1 receptor): 0% | EC50 (GIP receptor): 0.049 nM | relative activity (GIP receptor): 100%

B3: mt-98 (peptide)
peptide: YAEGTFTSDYSIYMDEIHQKDFVNWLLAQ-NH2
modifications: lactam 16-20; N-terminus assumed
SMILES: CC[C@H](C)[C@H](NC(=O)[C@H](CO)NC(=O)[C@H](Cc1ccc(O)cc1)NC(=O)[C@H](CC(=O)O)NC(=O)[C@H](CO)NC(=O)[C@@H](NC(=O)[C@H](Cc1ccccc1)NC(=O)[C@@H](NC(=O)CNC(=O)[C@H](CCC(=O)O)NC(=O)[C@H](C)NC(=O)[C@@H](N)Cc1ccc(O)cc1)[C@@H](C)O)[C@@H](C)O)C(=O)N[C@@H](Cc1ccc(O)cc1)C(=O)N[C@@H](CCSC)C(=O)N[C@@H](CC(=O)O)C(=O)N[C@H]1CCC(=O)NCCCC[C@@H](C(=O)N[C@@H](CC(=O)O)C(=O)N[C@@H](Cc2ccccc2)C(=O)N[C@H](C(=O)N[C@@H](CC(N)=O)C(=O)N[C@@H](Cc2c[nH]c3ccccc23)C(=O)N[C@@H](CC(C)C)C(=O)N[C@@H](CC(C)C)C(=O)N[C@@H](C)C(=O)N[C@@H](CCC(N)=O)C(N)=O)C(C)C)NC(=O)[C@H](CCC(N)=O)NC(=O)[C@H](Cc2c[nH]cn2)NC(=O)[C@H]([C@@H](C)CC)NC1=O
EC50 (glucagon receptor): 957 nM | relative activity (glucagon receptor): 0.01% | EC50 (GLP-1 receptor): 2.82 nM | relative activity (GLP-1 receptor): 1.42% | EC50 (GIP receptor): 0.196 nM | relative activity (GIP receptor): 25%

B4: mt-108 (peptide)
peptide: HSQGTFISDYSKALDEIHQKEFIAWLMNT-NH2
modifications: lactam 16-20; N-terminus assumed
SMILES: CC[C@H](C)[C@H](NC(=O)[C@H](Cc1ccccc1)NC(=O)[C@H](CCC(=O)O)NC(=O)[C@@H]1CCCCNC(=O)CC[C@H](NC(=O)[C@H](CC(=O)O)NC(=O)[C@H](CC(C)C)NC(=O)[C@H](C)NC(=O)[C@H](CCCCN)NC(=O)[C@H](CO)NC(=O)[C@H](Cc2ccc(O)cc2)NC(=O)[C@H](CC(=O)O)NC(=O)[C@H](CO)NC(=O)[C@@H](NC(=O)[C@H](Cc2ccccc2)NC(=O)[C@@H](NC(=O)CNC(=O)[C@H](CCC(N)=O)NC(=O)[C@H](CO)NC(=O)[C@@H](N)Cc2c[nH]cn2)[C@@H](C)O)[C@@H](C)CC)C(=O)N[C@@H]([C@@H](C)CC)C(=O)N[C@@H](Cc2c[nH]cn2)C(=O)N[C@@H](CCC(N)=O)C(=O)N1)C(=O)N[C@@H](C)C(=O)N[C@@H](Cc1c[nH]c2ccccc12)C(=O)N[C@@H](CC(C)C)C(=O)N[C@@H](CCSC)C(=O)N[C@@H](CC(N)=O)C(=O)N[C@H](C(N)=O)[C@@H](C)O
EC50 (glucagon receptor): 0.19 nM | relative activity (glucagon receptor): 68.4% | EC50 (GLP-1 receptor): 0.32 nM | relative activity (GLP-1 receptor): 12.5% | EC50 (GIP receptor): 4.78 nM | relative activity (GIP receptor): 0.52%

B5: mt-96 (peptide)
peptide: YAEGTFISDYSIAMDEIHQKDFVNWLLAQ-NH2
modifications: lactam 16-20; N-terminus assumed
SMILES: CC[C@H](C)[C@H](NC(=O)[C@H](CO)NC(=O)[C@H](Cc1ccc(O)cc1)NC(=O)[C@H](CC(=O)O)NC(=O)[C@H](CO)NC(=O)[C@@H](NC(=O)[C@H](Cc1ccccc1)NC(=O)[C@@H](NC(=O)CNC(=O)[C@H](CCC(=O)O)NC(=O)[C@H](C)NC(=O)[C@@H](N)Cc1ccc(O)cc1)[C@@H](C)O)[C@@H](C)CC)C(=O)N[C@@H](C)C(=O)N[C@@H](CCSC)C(=O)N[C@@H](CC(=O)O)C(=O)N[C@H]1CCC(=O)NCCCC[C@@H](C(=O)N[C@@H](CC(=O)O)C(=O)N[C@@H](Cc2ccccc2)C(=O)N[C@H](C(=O)N[C@@H](CC(N)=O)C(=O)N[C@@H](Cc2c[nH]c3ccccc23)C(=O)N[C@@H](CC(C)C)C(=O)N[C@@H](CC(C)C)C(=O)N[C@@H](C)C(=O)N[C@@H](CCC(N)=O)C(N)=O)C(C)C)NC(=O)[C@H](CCC(N)=O)NC(=O)[C@H](Cc2c[nH]cn2)NC(=O)[C@H]([C@@H](C)CC)NC1=O
EC50 (glucagon receptor): 61.7 nM | relative activity (glucagon receptor): 0.29% | EC50 (GLP-1 receptor): 92.9 nM | relative activity (GLP-1 receptor): 0.04% | EC50 (GIP receptor): 0.058 nM | relative activity (GIP receptor): 84.5%

YSQGTFTSDYSKYLDEIHQKDFVNWLLAQ-NH2 [mt-109]
EC50 (glucagon receptor): 0.13 nM | relative activity (glucagon receptor): 76.9% | EC50 (GLP-1 receptor): 3.86 nM | relative activity (GLP-1 receptor): 0.78% | EC50 (GIP receptor): 0.658 nM | relative activity (GIP receptor): 6.99%

B6: mt-97 (peptide)
peptide: HAEGTFTSDYSIYMDEIHQKDFVNWLLAQ-NH2
modifications: lactam 16-20; N-terminus assumed
SMILES: CC[C@H](C)[C@H](NC(=O)[C@H](CO)NC(=O)[C@H](Cc1ccc(O)cc1)NC(=O)[C@H](CC(=O)O)NC(=O)[C@H](CO)NC(=O)[C@@H](NC(=O)[C@H](Cc1ccccc1)NC(=O)[C@@H](NC(=O)CNC(=O)[C@H](CCC(=O)O)NC(=O)[C@H](C)NC(=O)[C@@H](N)Cc1c[nH]cn1)[C@@H](C)O)[C@@H](C)O)C(=O)N[C@@H](Cc1ccc(O)cc1)C(=O)N[C@@H](CCSC)C(=O)N[C@@H](CC(=O)O)C(=O)N[C@H]1CCC(=O)NCCCC[C@@H](C(=O)N[C@@H](CC(=O)O)C(=O)N[C@@H](Cc2ccccc2)C(=O)N[C@H](C(=O)N[C@@H](CC(N)=O)C(=O)N[C@@H](Cc2c[nH]c3ccccc23)C(=O)N[C@@H](CC(C)C)C(=O)N[C@@H](CC(C)C)C(=O)N[C@@H](C)C(=O)N[C@@H](CCC(N)=O)C(N)=O)C(C)C)NC(=O)[C@H](CCC(N)=O)NC(=O)[C@H](Cc2c[nH]cn2)NC(=O)[C@H]([C@@H](C)CC)NC1=O
EC50 (glucagon receptor): 4.08 nM | relative activity (glucagon receptor): 3.19% | EC50 (GLP-1 receptor): 2.36 nM | relative activity (GLP-1 receptor): 1.27% | EC50 (GIP receptor): 1.75 nM | relative activity (GIP receptor): 2.81%

Source: patent US20110166062A1 (INDIANA UNIVERSITY RESEARCH AND TECHNOLOGY, published 2011)
